We go through one protein from patent US5686294A.

Substrate in the data set: O=C(O)CC(=O)C(=O)O
Nature of the data set: purified protein, by the assay type. As to conditions: other: recombinant enzyme from Escherichia coli JM109 (pMDH1) (Example 6, Table 4).

B1: heat-resistant malate dehydrogenase (MAD) of Bacillus stearothermophilus ATCC 12016 gene, produced by Escherichia coli JM109 (pMDH1), amino acid sequence SEQ … (protein)
chain: MAMKRKKISVIGAGFTGATTAFLLAQKELGDVVLVDIPQLENPTKGKALDMLEASPVLGFDANIIGTSDYADTADSDIVVITAGIARKPGMSRDDLVTTNQKIMKQVTKEVVKYSPNCYIIVLTNPVDAMTYTVFKESGFPKNRVIGQSGVLDTARFRTFVAEELNISVKDVTGFVLGGHGDDMVPLVRYSYAGGIPLEKLIPKDRLDAIVERTRKGGGEIVNLLGNGSAYYAPAASLVEMVEAILKDQRRILPAIAYLEGEYGYEGIYLGVPTILGGNGIEKVIELELTEEEKARSPNPSNPLKMSCACWNSGEAKIRALPGFLSHSQ
One may read the Km as the concentration of substrate that gives half-maximal velocity. As to B1, the Km was determined as 4.3 µM.
